Drawing on article PMC5497066, this text covers observed folding rate constant of PepQ by recovery of enzymatic activity, bound to SR1 (300 nM) and refolded with GroES (600 nM) and ATP (2 mM) and early escape compared to SR1 for two molecules.

A value given as a limit tells only on which side of the number the result lay.

Test [1] concerns the target single-ring mutant of GroEL, SR1 (E. coli), P0A6F5.
For test [2], the target named is single-ring truncation mutant, SRΔ526 (E. coli). Nature of the test: protease protection (encapsulation); denatured PepQ-24F (100 nM) bound to wild-type or Δ526 GroEL-GroES-ADP bullets (200 nM) or full-length or Δ526 single-ring GroEL (300 nM) with GroES (600 nM); single turnover with ATP (2 mM), quenched after 10 s; unencapsulated PepQ digested with Proteinase K; SDS-PAGE, fluorescein scan.

B1: wild type E. coli PepQ, P21165 1-443 (enzyme)
chain: MESLASLYKNHIATLQERTRDALARFKLDALLIHSGELFNVFLDDHPYPFKVNPQFKAWVPVTQVPNCWLLVDGVNKPKLWFYLPVDYWHNVEPLPTSFWTEDVEVIALPKADGIGSLLPAARGNIGYIGPVPERALQLGIEASNINPKGVIDYLHYYRSFKTEYELACMREAQKMAVNGHRAAEEAFRSGMSEFDINIAYLTATGHRDTDVPYSNIVALNEHAAVLHYTKLDHQAPEEMRSFLLDAGAEYNGYAADLTRTWSAKSDNDYAQLVKDVNDEQLALIATMKAGVSYVDYHIQFHQRIAKLLRKHQIITDMSEEAMVENDLTGPFMPHGIGHPLGLQVHDVAGFMQDDSGTHLAAPAKYPYLRCTRILQPGMVLTIEPGIYFIESLLAPWREGQFSKHFNWQKIEALKPFGGIRIEDNVVIHENNVENMTRDLKLA
As for B1, in test [1], the observed folding rate constant of PepQ by recovery of enzymatic activity, bound to SR1 (300 nM) and refolded with GroES (600 nM) and ATP (2 mM) is 0.62 min⁻¹.

B2: PepQ-24F (enzyme)
chain: MESLASLYKNHIATLQERTRDALCRFKLDALLIHSGELFNVFLDDHPYPFKVNPQFKAWVPVTQVPNCWLLVDGVNKPKLWFYLPVDYWHNVEPLPTSFWTEDVEVIALPKADGIGSLLPAARGNIGYIGPVPERALQLGIEASNINPKGVIDYLHYYRSFKTEYELACMREAQKMAVNGHRAAEEAFRSGMSEFDINIAYLTATGHRDTDVPYSNIVALNEHAAVLHYTKLDHQAPEEMRSFLLDAGAEYNGYAADLTRTWSAKSDNDYAQLVKDVNDEQLALIATMKAGVSYVDYHIQFHQRIAKLLRKHQIITDMSEEAMVENDLTGPFMPHGIGHPLGLQVHDVAGFMQDDSGTHLAAPAKYPYLRCTRILQPGMVLTIEPGIYFIESLLAPWREGQFSKHFNWQKIEALKPFGGIRIEDNVVIHENNVENMTRDLKLA
modifications: fluorescein (5-iodoacetamidofluorescein) on the cysteine at position 24
In test [2], B2 yielded an early escape compared to SR1 of under 10%.
